Assays:
[1] = system: tm-PTPε A24C mutant, V5-tagged
[2] = system: tm-PTPε (wild type, stably expressed in NIH/3T3 and Rat-1 cells)
[3] = system: tm-PTPε Q26C mutant, V5-tagged
[4] = molecular target: the molecule itself; experiment: V5 immunoblot, non-reducing conditions (figure legend; self-dimer)
Experimental: Whole cell lysates were prepared from NIH/3T3 transiently transfected with vectors expressing either a V5-tagged wild-type PTPRε or PTPRε P20C, D21C, P22C, G23C, A24C, S25C, Q26C mutants, as well as from empty vector control cell lines. Cell lysis was carried out in the presence of 20 mM iodacetamide. Iodacetamide inhibits glutathione reductase, the enzyme responsible for disulfide bridge reduction in vivo, to minimize dimmer cleavage. All the constructs encode a V5-tagged protein. Samples were analyzed in reducing and non-reducing conditions and immunoblotted, for wild-type or tm-PTPε mutant protein expression by probing with a V5-specific antibody. All the proteins are expressed as monomers in reducing conditions (FIG. 20A). In non-reducing conditions, however, while wild-type tm-PTPε was unable to form a dimer (because it is lacking cysteines in its extracellular domain), all tm-PTPε mutants formed dimers (FIG. 20B).

Molecule: Src
- Src-Y529 phosphorylation levels (immunoblot with a Src-Y529 phospho-specific antibody) [1]: Both clones of tm-PTPε A24C mutant were unable to dephosphorylate Src-Y529
- Src-Y529 phosphorylation levels (immunoblot with a Src-Y529 phospho-specific antibody) [2]: tm-PTPε overexpression cause Src-Tyr-529 dephosphorylation in NIH/3T3 and Rat-1 cells
- Src-Y529 phosphorylation levels (immunoblot with a Src-Y529 phospho-specific antibody) [3]: Like wild-type tm-PTPε, PTPRεQ26C mutant was able to dephosphorylate Src-Y529

B1: tm-PTPε P20C mutant, V5-tagged (receptor, not shown: small tags and cut ends)
chain: LRGNETTADSNETTTTSGPCDPGASQPLLAWLLLPLLLLLLVLLLAAYFFRFRKQRKAVVSTSDKKMPNGILEEQEQQRVMLLSRSPSGPKKYFPIPVEHLEEEIRIRSADDCKQFREEFNSLPSGHIQGTFELANKEENREKNRYPNILPNDHSRVILSQLDGIPCSDYINASYIDGYKEKNKFIAAQGPKQETVNDFWRMVWEQKSATIVMLTNLKERKEEKCHQYWPDQGCWTYGNIRVCVEDCVVLVDYTIRKFCIQPQLPDGCKAPRLVSQLHFTSWPDFGVPFTPIGMLKFLKKVKTLNPVHAGPIVVHCSAGVGRTGTFIVIDAMMAMMHAEQKVDVFEFVSRIRNQRPQMVQTDMQYTFIYQALLEYYLYGDTELDVSSLEKHLQTMHGTTTHFDKIGLEEEFRKLTNVRIMKENMRTGNLPANMKKARVIQIIPYDFNRVILSMKRGQEYTDYINASFIDGYRQKDYFIATQGPLAHTVEDFWRMIWEWKSHTIVMLTEVQEREQDKCYQYWPTEGSVTHGEITIEIKNDTLSEAISIRDFLVTLNQPQARQEEQVRVVRQFHFHGWPEIGIPAEGKGMIDLIAAVQKQQQQTGNHPITVHCSAGAGRTGTFIALSNILERVKAEGLLDVFQAVKSLRLQRPHMVQTLEQYEFCYKVVQDFIDIFSDYANFK
notes: Transiently expressed in NIH/3T3 cells; also called PTPRε P20C
- binding result [4]: binds

B2: tm-PTPε D21C mutant, V5-tagged (receptor, not shown: small tags and cut ends)
chain: LRGNETTADSNETTTTSGPPCPGASQPLLAWLLLPLLLLLLVLLLAAYFFRFRKQRKAVVSTSDKKMPNGILEEQEQQRVMLLSRSPSGPKKYFPIPVEHLEEEIRIRSADDCKQFREEFNSLPSGHIQGTFELANKEENREKNRYPNILPNDHSRVILSQLDGIPCSDYINASYIDGYKEKNKFIAAQGPKQETVNDFWRMVWEQKSATIVMLTNLKERKEEKCHQYWPDQGCWTYGNIRVCVEDCVVLVDYTIRKFCIQPQLPDGCKAPRLVSQLHFTSWPDFGVPFTPIGMLKFLKKVKTLNPVHAGPIVVHCSAGVGRTGTFIVIDAMMAMMHAEQKVDVFEFVSRIRNQRPQMVQTDMQYTFIYQALLEYYLYGDTELDVSSLEKHLQTMHGTTTHFDKIGLEEEFRKLTNVRIMKENMRTGNLPANMKKARVIQIIPYDFNRVILSMKRGQEYTDYINASFIDGYRQKDYFIATQGPLAHTVEDFWRMIWEWKSHTIVMLTEVQEREQDKCYQYWPTEGSVTHGEITIEIKNDTLSEAISIRDFLVTLNQPQARQEEQVRVVRQFHFHGWPEIGIPAEGKGMIDLIAAVQKQQQQTGNHPITVHCSAGAGRTGTFIALSNILERVKAEGLLDVFQAVKSLRLQRPHMVQTLEQYEFCYKVVQDFIDIFSDYANFK
notes: Transiently expressed in NIH/3T3 cells; also called PTPRε D21C
- binding result [4]: binds

B3: tm-PTPε S25C mutant, V5-tagged (receptor, not shown: small tags and cut ends)
chain: LRGNETTADSNETTTTSGPPDPGACQPLLAWLLLPLLLLLLVLLLAAYFFRFRKQRKAVVSTSDKKMPNGILEEQEQQRVMLLSRSPSGPKKYFPIPVEHLEEEIRIRSADDCKQFREEFNSLPSGHIQGTFELANKEENREKNRYPNILPNDHSRVILSQLDGIPCSDYINASYIDGYKEKNKFIAAQGPKQETVNDFWRMVWEQKSATIVMLTNLKERKEEKCHQYWPDQGCWTYGNIRVCVEDCVVLVDYTIRKFCIQPQLPDGCKAPRLVSQLHFTSWPDFGVPFTPIGMLKFLKKVKTLNPVHAGPIVVHCSAGVGRTGTFIVIDAMMAMMHAEQKVDVFEFVSRIRNQRPQMVQTDMQYTFIYQALLEYYLYGDTELDVSSLEKHLQTMHGTTTHFDKIGLEEEFRKLTNVRIMKENMRTGNLPANMKKARVIQIIPYDFNRVILSMKRGQEYTDYINASFIDGYRQKDYFIATQGPLAHTVEDFWRMIWEWKSHTIVMLTEVQEREQDKCYQYWPTEGSVTHGEITIEIKNDTLSEAISIRDFLVTLNQPQARQEEQVRVVRQFHFHGWPEIGIPAEGKGMIDLIAAVQKQQQQTGNHPITVHCSAGAGRTGTFIALSNILERVKAEGLLDVFQAVKSLRLQRPHMVQTLEQYEFCYKVVQDFIDIFSDYANFK
notes: Transiently expressed in NIH/3T3 cells; also called PTPRε S25C
- binding result [4]: binds

B4: tm-PTPε Q26C mutant, V5-tagged (receptor, not shown: small tags and cut ends)
chain: LRGNETTADSNETTTTSGPPDPGASCPLLAWLLLPLLLLLLVLLLAAYFFRFRKQRKAVVSTSDKKMPNGILEEQEQQRVMLLSRSPSGPKKYFPIPVEHLEEEIRIRSADDCKQFREEFNSLPSGHIQGTFELANKEENREKNRYPNILPNDHSRVILSQLDGIPCSDYINASYIDGYKEKNKFIAAQGPKQETVNDFWRMVWEQKSATIVMLTNLKERKEEKCHQYWPDQGCWTYGNIRVCVEDCVVLVDYTIRKFCIQPQLPDGCKAPRLVSQLHFTSWPDFGVPFTPIGMLKFLKKVKTLNPVHAGPIVVHCSAGVGRTGTFIVIDAMMAMMHAEQKVDVFEFVSRIRNQRPQMVQTDMQYTFIYQALLEYYLYGDTELDVSSLEKHLQTMHGTTTHFDKIGLEEEFRKLTNVRIMKENMRTGNLPANMKKARVIQIIPYDFNRVILSMKRGQEYTDYINASFIDGYRQKDYFIATQGPLAHTVEDFWRMIWEWKSHTIVMLTEVQEREQDKCYQYWPTEGSVTHGEITIEIKNDTLSEAISIRDFLVTLNQPQARQEEQVRVVRQFHFHGWPEIGIPAEGKGMIDLIAAVQKQQQQTGNHPITVHCSAGAGRTGTFIALSNILERVKAEGLLDVFQAVKSLRLQRPHMVQTLEQYEFCYKVVQDFIDIFSDYANFK
notes: Transiently expressed in NIH/3T3 cells (dimer blot) and stably in Rat-1 clones #1 and #30 (Src-Y529 blot); also called PTPRε Q26C; PTPRεQ26C
- binding result [4]: binds

B5: tm-PTPε G23C mutant, V5-tagged (receptor, not shown: small tags and cut ends)
chain: LRGNETTADSNETTTTSGPPDPCASQPLLAWLLLPLLLLLLVLLLAAYFFRFRKQRKAVVSTSDKKMPNGILEEQEQQRVMLLSRSPSGPKKYFPIPVEHLEEEIRIRSADDCKQFREEFNSLPSGHIQGTFELANKEENREKNRYPNILPNDHSRVILSQLDGIPCSDYINASYIDGYKEKNKFIAAQGPKQETVNDFWRMVWEQKSATIVMLTNLKERKEEKCHQYWPDQGCWTYGNIRVCVEDCVVLVDYTIRKFCIQPQLPDGCKAPRLVSQLHFTSWPDFGVPFTPIGMLKFLKKVKTLNPVHAGPIVVHCSAGVGRTGTFIVIDAMMAMMHAEQKVDVFEFVSRIRNQRPQMVQTDMQYTFIYQALLEYYLYGDTELDVSSLEKHLQTMHGTTTHFDKIGLEEEFRKLTNVRIMKENMRTGNLPANMKKARVIQIIPYDFNRVILSMKRGQEYTDYINASFIDGYRQKDYFIATQGPLAHTVEDFWRMIWEWKSHTIVMLTEVQEREQDKCYQYWPTEGSVTHGEITIEIKNDTLSEAISIRDFLVTLNQPQARQEEQVRVVRQFHFHGWPEIGIPAEGKGMIDLIAAVQKQQQQTGNHPITVHCSAGAGRTGTFIALSNILERVKAEGLLDVFQAVKSLRLQRPHMVQTLEQYEFCYKVVQDFIDIFSDYANFK
notes: Transiently expressed in NIH/3T3 cells; also called PTPRε G23C
- binding result [4]: binds

B6: tm-PTPε P22C mutant, V5-tagged (receptor, not shown: small tags and cut ends)
chain: LRGNETTADSNETTTTSGPPDCGASQPLLAWLLLPLLLLLLVLLLAAYFFRFRKQRKAVVSTSDKKMPNGILEEQEQQRVMLLSRSPSGPKKYFPIPVEHLEEEIRIRSADDCKQFREEFNSLPSGHIQGTFELANKEENREKNRYPNILPNDHSRVILSQLDGIPCSDYINASYIDGYKEKNKFIAAQGPKQETVNDFWRMVWEQKSATIVMLTNLKERKEEKCHQYWPDQGCWTYGNIRVCVEDCVVLVDYTIRKFCIQPQLPDGCKAPRLVSQLHFTSWPDFGVPFTPIGMLKFLKKVKTLNPVHAGPIVVHCSAGVGRTGTFIVIDAMMAMMHAEQKVDVFEFVSRIRNQRPQMVQTDMQYTFIYQALLEYYLYGDTELDVSSLEKHLQTMHGTTTHFDKIGLEEEFRKLTNVRIMKENMRTGNLPANMKKARVIQIIPYDFNRVILSMKRGQEYTDYINASFIDGYRQKDYFIATQGPLAHTVEDFWRMIWEWKSHTIVMLTEVQEREQDKCYQYWPTEGSVTHGEITIEIKNDTLSEAISIRDFLVTLNQPQARQEEQVRVVRQFHFHGWPEIGIPAEGKGMIDLIAAVQKQQQQTGNHPITVHCSAGAGRTGTFIALSNILERVKAEGLLDVFQAVKSLRLQRPHMVQTLEQYEFCYKVVQDFIDIFSDYANFK
notes: Transiently expressed in NIH/3T3 cells; also called PTPRε P22C
- binding result [4]: binds

B7: tm-PTPε A24C mutant, V5-tagged (receptor, not shown: small tags and cut ends)
chain: LRGNETTADSNETTTTSGPPDPGCSQPLLAWLLLPLLLLLLVLLLAAYFFRFRKQRKAVVSTSDKKMPNGILEEQEQQRVMLLSRSPSGPKKYFPIPVEHLEEEIRIRSADDCKQFREEFNSLPSGHIQGTFELANKEENREKNRYPNILPNDHSRVILSQLDGIPCSDYINASYIDGYKEKNKFIAAQGPKQETVNDFWRMVWEQKSATIVMLTNLKERKEEKCHQYWPDQGCWTYGNIRVCVEDCVVLVDYTIRKFCIQPQLPDGCKAPRLVSQLHFTSWPDFGVPFTPIGMLKFLKKVKTLNPVHAGPIVVHCSAGVGRTGTFIVIDAMMAMMHAEQKVDVFEFVSRIRNQRPQMVQTDMQYTFIYQALLEYYLYGDTELDVSSLEKHLQTMHGTTTHFDKIGLEEEFRKLTNVRIMKENMRTGNLPANMKKARVIQIIPYDFNRVILSMKRGQEYTDYINASFIDGYRQKDYFIATQGPLAHTVEDFWRMIWEWKSHTIVMLTEVQEREQDKCYQYWPTEGSVTHGEITIEIKNDTLSEAISIRDFLVTLNQPQARQEEQVRVVRQFHFHGWPEIGIPAEGKGMIDLIAAVQKQQQQTGNHPITVHCSAGAGRTGTFIALSNILERVKAEGLLDVFQAVKSLRLQRPHMVQTLEQYEFCYKVVQDFIDIFSDYANFK
notes: Transiently expressed in NIH/3T3 cells (dimer blot) and stably in Rat-1 clones #8 and #26 (Src-Y529 blot); also called PTPRε A24C; PTPRε.A24C
- binding result [4]: binds
